The target in assay [1] is T1, human CD22-ECD-His protein (human, UniProt P20273 20-687).
T1 construct: Made in house in HEK293E; also called hCD22-ECD-His; recombinant human CD22-ECD His protein; not shown: His tag
T1 sequence: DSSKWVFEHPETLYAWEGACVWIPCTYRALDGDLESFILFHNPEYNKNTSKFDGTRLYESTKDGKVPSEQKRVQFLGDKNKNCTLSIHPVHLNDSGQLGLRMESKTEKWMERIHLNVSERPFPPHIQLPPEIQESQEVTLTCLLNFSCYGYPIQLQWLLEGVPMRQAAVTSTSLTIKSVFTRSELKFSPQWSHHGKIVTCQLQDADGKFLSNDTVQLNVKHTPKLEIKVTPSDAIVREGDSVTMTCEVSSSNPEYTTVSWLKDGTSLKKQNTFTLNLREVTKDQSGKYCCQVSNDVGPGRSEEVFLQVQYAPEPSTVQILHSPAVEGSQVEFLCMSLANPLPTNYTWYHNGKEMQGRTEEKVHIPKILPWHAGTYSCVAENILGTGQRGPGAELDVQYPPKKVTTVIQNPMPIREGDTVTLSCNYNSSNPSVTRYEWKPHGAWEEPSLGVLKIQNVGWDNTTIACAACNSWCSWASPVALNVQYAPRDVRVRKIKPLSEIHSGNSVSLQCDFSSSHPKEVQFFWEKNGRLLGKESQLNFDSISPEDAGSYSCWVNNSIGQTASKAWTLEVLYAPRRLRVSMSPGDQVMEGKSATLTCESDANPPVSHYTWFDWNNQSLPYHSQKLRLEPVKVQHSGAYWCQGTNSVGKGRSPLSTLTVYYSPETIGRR
Kind of assay: ELISA, human CD22-ECD-His coated. In short, it runs like this: (§1)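 Coat: CD22-ECD-His 2 μg/mL PBS, 4 °C o/n. Block PBS/2% BSA 2 h RT. Ab 2 h 37 °C; HRP 2° 2 h 37 °C; TMB 30 min RT, 1.0 N HCl stop.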
(An ELISA detects its analyte on a solid surface through an enzyme-linked reagent.)

The target of assay [2] is T2, monkey CD22 protein (ACROBiosystems, SI2-R52Ha) (monkey (rhesus monkey in paragraph 148), UniProt H9G1X2 18-686).
T2 construct: extracellular domain; also called monkey CD22-ECD; monkey CD22-ECD-His
T2 sequence: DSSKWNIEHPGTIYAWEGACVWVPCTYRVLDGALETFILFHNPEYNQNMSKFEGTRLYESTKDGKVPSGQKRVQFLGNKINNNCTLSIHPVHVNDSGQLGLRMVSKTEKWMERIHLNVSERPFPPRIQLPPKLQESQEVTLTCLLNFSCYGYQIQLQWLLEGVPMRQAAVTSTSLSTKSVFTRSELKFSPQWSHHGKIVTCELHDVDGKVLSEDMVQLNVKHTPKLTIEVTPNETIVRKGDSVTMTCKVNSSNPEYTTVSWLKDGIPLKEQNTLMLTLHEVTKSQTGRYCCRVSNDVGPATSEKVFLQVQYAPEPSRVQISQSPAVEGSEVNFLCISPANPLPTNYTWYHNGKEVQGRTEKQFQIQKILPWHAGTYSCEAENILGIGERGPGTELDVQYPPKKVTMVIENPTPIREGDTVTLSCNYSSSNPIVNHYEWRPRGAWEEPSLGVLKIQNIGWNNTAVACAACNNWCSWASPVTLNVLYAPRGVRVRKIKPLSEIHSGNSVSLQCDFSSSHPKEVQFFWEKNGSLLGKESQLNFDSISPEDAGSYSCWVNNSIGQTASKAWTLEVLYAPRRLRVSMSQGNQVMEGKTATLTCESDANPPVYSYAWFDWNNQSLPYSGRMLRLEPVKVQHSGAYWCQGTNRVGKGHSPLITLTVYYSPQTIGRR
Kind of assay: ELISA, monkey CD22-ECD-His coated. In short, it runs like this:
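First, CD22 (2 μg/mL, PBS) was coated at 4° C overnight. Second, wells were blocked with PBS containing 2% BSA for 2 h at room temperature. Third, antibody and then HRP secondary were each incubated 2 h at 37° C. Finally, TMB colour was stopped with HCl.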

For assay [3], the target named is T1, human CD22-ECD-His protein. Kind of assay: ELISA, Ab 0.0001 nM. In short, it runs like this:
as §1

For assay [4], the target named is T1, human CD22-ECD-His protein. Kind of assay: ELISA, Ab 0.001 nM. Put shortly: as §1
A further assay deals with T3, human CD22 domain1-4-His (human, UniProt P20273 20-425).
T3 construct: also called hCD22 domain1-4-His; not shown: His tag
T3 sequence: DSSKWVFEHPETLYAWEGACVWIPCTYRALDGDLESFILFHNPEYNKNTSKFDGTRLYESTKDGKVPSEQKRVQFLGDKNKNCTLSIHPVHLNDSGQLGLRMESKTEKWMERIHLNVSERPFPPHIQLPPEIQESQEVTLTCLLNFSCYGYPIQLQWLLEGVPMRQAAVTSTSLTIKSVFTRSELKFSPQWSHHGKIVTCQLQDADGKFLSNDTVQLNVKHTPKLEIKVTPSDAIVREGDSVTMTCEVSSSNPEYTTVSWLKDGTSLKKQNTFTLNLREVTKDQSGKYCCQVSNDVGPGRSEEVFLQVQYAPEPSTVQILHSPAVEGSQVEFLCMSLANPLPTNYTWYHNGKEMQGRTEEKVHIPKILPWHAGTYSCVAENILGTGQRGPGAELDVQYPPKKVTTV
Kind of assay: ELISA, human CD22 domain1-4-His coated.

B1: F2.343.16 (antibody, human IgG1, lambda, V domains shown)
VH: QVQLKQSGPGLVQPSQSLSITCTVSGFSLTGYGVQWVRQSPGKGLEWLGVIWGGGGTDYNAAFISRLNIIKDNSKSQVFFKMNSLQADDTAIYYCARYSKYGHFDVWGTGTAVTVSS
VL: QAVVTQESALTTSPGETVTLTCRSSTGAVTTSNYANWVQEKPDHLFTGLIGGTYNRVPGVPARFSGSLIGDKAALTITGAQTEDEAIYFCALWYSNHFWVFGGGTKLTVLG
notes: Human-murine chimeric IgG1, lambda
For orientation: EC50 (read off the curve) means the concentration giving half of the maximal effect. Take B1: the “EC50 (read off the curve)” value (in assay [1]; with human CD22 domain1-4-His) was about 0.06 nM throughout. Besides, in assay [2], the binding result is listed as “no binding (tested: 100 nM)”. Besides, the OD450 in assay [3] amounted to 0.25 OD450; in assay [4] it was 0.43 OD450.

B2: F1.60.9 (antibody, human IgG1, kappa, V domains shown)
VH: QVQLKESGPGLVAPSQSLSITCTVSGLSLNNYGVSWVRQPPGKGLEWLGVIWGDGSTNYHSALISRLSISKDNSKSQVFLKLNSLHTDDTATYYCAINWGDYWGQGTTLIVSS
VL: DIKMTQSPSSMNASLGERVTITCKASQDINSYLSWFQQKPGKSPKILIYRANRLIDGVPSRFSGSGSGQDYSLTISSLEYEDMGIYYCLQYGVFPLTFGAGTKLELKR
notes: Human-murine chimeric IgG1, kappa
B2: the concentration giving a half-maximal response (EC50 (read off the curve)) in assay [1] was about 0.05 nM. The binding result (in assay [2]; with human CD22 domain1-4-His) was “no binding (tested: 100 nM)” in each case. For the same molecule, the values for the OD450 in assay [3] and in assay [4] were 0.13 OD450 and 0.47 OD450, respectively.

Values taken from patent US20240084003A1 (SIMCERE ZAIMING PHARMACEUTICAL, published 2024).
